According to patent US20190367620A1 (Merck KGaA, published 2019):
Positions count from the first letter of the chain named.

B1: mAb #A05 (antibody, V domains shown)
VH: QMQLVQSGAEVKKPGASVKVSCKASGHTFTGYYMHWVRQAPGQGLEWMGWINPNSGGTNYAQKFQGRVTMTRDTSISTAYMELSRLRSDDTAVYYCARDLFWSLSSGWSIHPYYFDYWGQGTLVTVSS
VL: QSALTQPASVSGSPGQSITISCTGTSSDVGSYNLVSWYQQHPGKAPKLMIYGGSKRPSGVPDRFSGSKSDTSASLTISGLQAEDEADYYCCSYTYNGDVFGTGTKVTVL
notes: also called #A05 hit; A05 (IgG1)
B2: #A08 IgG1 (standard IgG1 built from the #A08 lead heavy and light chains) (antibody, V domains shown)
VH: EVQLQESGPGLVKPSGTLSLTCAVSGGSISSNNWWSWVRQPPGKGLEWIGEIYHSGSTSYNPSLKSRVTISVDKSKNQFSLKLSSVTAADTAVYYCARGTDWFDPWGQGTLVTVSS
VL: SYVLTQPPSVSVAPGQTARITCGGNNIGSESVHWYQQKPGQAPVLVVYDDSDRPSGIPERFSGSNSGNTATLTISRVEAGDEADYYCQVWDSTSDHRVFGGGTKLTVLG
notes: also called #A08 lead IgG1; mAb #A08 in the IgG1 format

Experiments:
FGFR1 on NCI-H520 cells [1] = biological target: T1, FGFR1 on NCI-H520 cells (human, UniProt P11362 22-822); assay: cell-based or functional assay
T1 sequence (P11362 22-822): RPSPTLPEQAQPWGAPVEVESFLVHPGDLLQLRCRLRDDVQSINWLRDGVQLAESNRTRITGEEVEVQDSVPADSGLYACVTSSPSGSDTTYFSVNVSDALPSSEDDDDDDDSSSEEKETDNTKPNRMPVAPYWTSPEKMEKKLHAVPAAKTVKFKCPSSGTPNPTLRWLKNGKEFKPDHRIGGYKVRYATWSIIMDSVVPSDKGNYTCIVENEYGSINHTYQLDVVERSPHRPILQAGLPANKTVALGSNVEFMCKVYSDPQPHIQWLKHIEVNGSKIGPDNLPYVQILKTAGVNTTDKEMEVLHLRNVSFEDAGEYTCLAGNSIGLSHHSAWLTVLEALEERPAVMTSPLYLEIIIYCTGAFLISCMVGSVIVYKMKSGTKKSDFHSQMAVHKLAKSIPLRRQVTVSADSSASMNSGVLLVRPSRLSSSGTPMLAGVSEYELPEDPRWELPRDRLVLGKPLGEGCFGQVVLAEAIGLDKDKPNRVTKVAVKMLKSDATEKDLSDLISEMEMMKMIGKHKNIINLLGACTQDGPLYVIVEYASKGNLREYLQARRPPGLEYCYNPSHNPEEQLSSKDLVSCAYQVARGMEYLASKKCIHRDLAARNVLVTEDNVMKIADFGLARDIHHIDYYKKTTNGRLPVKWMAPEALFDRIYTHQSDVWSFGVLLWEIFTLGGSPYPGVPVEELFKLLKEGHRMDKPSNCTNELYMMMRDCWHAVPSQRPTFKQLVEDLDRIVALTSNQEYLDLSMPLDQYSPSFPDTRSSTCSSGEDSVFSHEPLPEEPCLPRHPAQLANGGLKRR

FGFR1 on NCI-H520 cells [2] = biological target: T1, FGFR1 on NCI-H520 cells; assay: cell-based or functional assay; remark: listed apart in the source
ratFGFR1a-IIIc = biological target: T2, ratFGFR1a-IIIc (rat, UniProt Q04589 22-376); assay: SPR (Biacore 4000), antibody captured, His-tagged FGFR1 injected
T2 construct: Bought, His6 tag; also called rat FGFR1a-IIIc His6-tagged
T2 sequence (looked up): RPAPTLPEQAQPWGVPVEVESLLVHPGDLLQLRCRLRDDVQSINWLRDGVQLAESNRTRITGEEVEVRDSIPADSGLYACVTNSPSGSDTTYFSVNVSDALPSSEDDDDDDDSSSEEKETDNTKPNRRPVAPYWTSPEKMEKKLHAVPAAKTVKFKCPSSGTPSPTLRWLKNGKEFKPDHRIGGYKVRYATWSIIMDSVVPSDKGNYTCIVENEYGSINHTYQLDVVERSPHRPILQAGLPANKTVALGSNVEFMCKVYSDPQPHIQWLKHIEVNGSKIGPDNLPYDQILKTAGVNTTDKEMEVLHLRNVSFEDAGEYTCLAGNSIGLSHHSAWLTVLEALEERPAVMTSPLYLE
Procedure: (§1) Binding affinities of anti-FGFR1 antibodies to FGFR1 were measured by Surface Plasmon Resonance (SPR) using a GE Healthcare BIAcore 4000 instrument as follows. Goat anti-human Fc antibody (Jackson ImmunoResearch Laboratories #109-005-098) was first immobilized on BIAcore carboxymethylated dextran CM5 chip using direct coupling to free amino groups following the procedure described by the manufacturer. Antibodies were then captured on the CM5 biosensor chip to achieve approximately 200 response units (RU). Binding measurements were performed using the running HBS-EP+ buffer. A 2-fold dilution series of His-tagged FGFR1 proteins were injected at a flow rate of 30 μl/min at 25° C. Association rates (kₒₙ, per mol/s) and dissociation rates (koff, per s) were calculated using a simple 1:1 Langmuir binding model (Biacore 4000 Evaluation Software). The equilibrium dissociation constant (KD, mol) was calculated as the ratio of koff/kₒₙ.

Human FGFR1 D2-His6 = biological target: T3, Human FGFR1 D2-His6 (human, UniProt P11362 22-254); assay: ELISA, antibody titrated on FGFR1 Ig-D2, O.D. 450 nm [panel FGFR1 Ig-D2]
T3 construct: also called D2 domain; F3FR1c-D2
T3 sequence: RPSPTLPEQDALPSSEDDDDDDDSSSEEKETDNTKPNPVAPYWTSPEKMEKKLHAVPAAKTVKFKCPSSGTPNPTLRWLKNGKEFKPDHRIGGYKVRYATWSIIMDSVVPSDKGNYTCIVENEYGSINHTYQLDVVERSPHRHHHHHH

[3] = biological target: T4, human FGFR1b-IIIc extracellular domain with a HIS tag (human, UniProt P11362 22-376); assay: SPR (Biacore 4000), antibody captured, His-tagged FGFR1 injected; differs from the cell of Table 1
T4 construct: also called huFGFR1b-IIIc; hFGFR1b-IIIc
T4 sequence: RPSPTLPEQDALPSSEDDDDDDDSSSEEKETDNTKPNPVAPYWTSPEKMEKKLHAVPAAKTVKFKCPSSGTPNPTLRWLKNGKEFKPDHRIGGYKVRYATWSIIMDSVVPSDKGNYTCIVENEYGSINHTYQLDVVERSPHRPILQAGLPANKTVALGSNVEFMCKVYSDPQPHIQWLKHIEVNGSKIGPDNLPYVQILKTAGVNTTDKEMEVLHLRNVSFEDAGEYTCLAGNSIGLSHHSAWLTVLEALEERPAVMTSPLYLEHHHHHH
Procedure: as §1

muFGFR1a-IIIc = biological target: T5, muFGFR1a-IIIc (mouse, UniProt P16092 22-376); assay: SPR (Biacore 4000), antibody captured, His-tagged FGFR1 injected; no unit in the table, nM inferred from paragraph 90
T5 construct: Bought, His6 tag; also called mouse FGFR1a-IIIc His6-tagged; murine FGFR1a-IIIc
T5 sequence (looked up): T2 sequence (looked up) with A53V, N83S, S164N, D287V
Procedure: as §1

rheFGFR1a-IIIc = biological target: T6, rheFGFR1a-IIIc (rhesus monkey); assay: as above
T6 construct: Bought, His6 tag; also called rhesus monkey FGFR1a-IIIc His6-tagged
Procedure: as §1

[4] = biological target: T7, human FGFR1b-IIIb extracellular domain with a HIS tag (human); assay: SPR (BIAcore), IgG1 format; target IIIb by paragraph 74 and paragraph 125, the table's title says IIIc; IgG1 (bivalent), not SEEDbody
T7 construct: also called huFGFR1b-IIIb; hFGFR1b-IIIb
T7 chain: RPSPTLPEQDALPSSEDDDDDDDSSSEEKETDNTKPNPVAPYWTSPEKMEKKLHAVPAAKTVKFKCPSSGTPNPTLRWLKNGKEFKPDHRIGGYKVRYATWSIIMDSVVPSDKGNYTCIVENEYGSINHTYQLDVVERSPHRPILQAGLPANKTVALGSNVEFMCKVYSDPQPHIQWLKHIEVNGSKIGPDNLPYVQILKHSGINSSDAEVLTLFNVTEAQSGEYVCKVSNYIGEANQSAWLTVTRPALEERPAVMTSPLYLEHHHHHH
Procedure: as §1
The affinities to human FGFR1b-IIIb for the affinity matured clones reformatted as IgG and monovalent SEEDbodies were measured by BIAcore (using a protocol similar to the one described in Example 1.8) and compared to those of mAb #08 (Table 5).

| Binder | IC50, inhibition of P-FGFR1 in NCI-H520 cells, FGF1 stimulated (asterisk: partial response) (FGFR1 on NCI-H520 cells [1]) [nM] | IC50, inhibition of P-FGFR1 in NCI-H520 cells, FGF2 stimulated (FGFR1 on NCI-H520 cells [1]) [nM] | IC50, pFGFR1 inhibition in NCI-H520 cells, FGF1, IgG1 (asterisk: partial response) (FGFR1 on NCI-H520 cells [2]) [M] | IC50, pFGFR1 inhibition in NCI-H520 cells, FGF2, IgG1 (FGFR1 on NCI-H520 cells [2]) [M] | IC50, pFGFR1 inhibition in NCI-H520 cells, non-stimulated, IgG1 (FGFR1 on NCI-H520 cells [2]) [M] | binding result (ratFGFR1a-IIIc) | binding result (Human FGFR1 D2-His6) | Kd [3] [nM] | Kd (muFGFR1a-IIIc) [nM] | Kd (rheFGFR1a-IIIc) [nM] | IC50, pFGFR1 inhibition in NCI-H520 cells, FGF1, IgG1 (FGFR1 on NCI-H520 cells [2]) [M] | IC50, pFGFR1 inhibition in NCI-H520 cells, non-stimulated, IgG1 (asterisk: partial response) (FGFR1 on NCI-H520 cells [2]) [M] | Kd [4] [nM] |
| --- | --- | --- | --- | --- | --- | --- | --- | --- | --- | --- | --- | --- | --- |
| B1 | 1 | 1 | 8e-09 | 3e-09 | > 1e-06 | no binding | no binding (tested: about 0.7 nM (Log(nM) about -0.15)) | 0.01 | 1.6 | 0.51 | – | – | – |
| B2 | – | – | – | 2e-10 | – | – | – | – | – | – | 1e-09 | 5e-08 | 0.06 |
